Measured values as given in patent US20160074473A1, “EFFECT OF PHOSPHOLIPID COMPOSITION OF RECONSTITUTED HDL ON ITS CHOLESTEROL EFFLUX AND ANTI-INFLAMMATORY PROPERTIES” (Kinemed, Inc., priority 2014, published 2016).
“And” between values parts separate entries of the source, which are not always exact repeats. Equal values may be shown once. Read-outs that look alike come from different tables or passages of the source.

What was measured:
[1] = cited from earlier work
[2] = Alpha-helical content by circular dichroism; format: physicochemical
Method: High-density lipoprotein-like 5A-POPC and 5A-SM complexes were prepared by a co-lyophilization procedure (25, 26). Peptide and phospholipids were dissolved in glacial acetic acid and mixed at 1:1.25 w/w ratio (approximately 1:7 molar ratio) and lyophilized. The powder was hydrated with bicarbonate buffered saline and cycled between 50° C. and room temperature to facilitate 5A-lipid binding. The resulting HDL complexes were analyzed by gel permeation chromatography, with UV detection at 220 nm, using Tosoh TSK gel G3000SWx1 column (Tosoh Bioscience, King of Prussia, Pa.). The HDL hydrodynamic diameters were determined by dynamic light scattering (DLS), using a Zetasizer Nano, Malvern Instruments (Westborough, Mass.). The number and intensity average values were reported. The alpha-helical contents of free and lipid bound 5A peptide were determined by Jasco J715 (Jasco, Easton, Md.) circular dichroism spectropolarimeter. Samples at 0.1 mg/mL concentration were loaded into a quartz cuvette (d=0.2-cm path length), and CD spectra from 185 to 240 nm were recorded at 24° C. […]
High-density lipoprotein-like 5A-POPC and 5A-SM complexes were prepared by a co-lyophilization procedure (25, 26). […] The resulting HDL complexes were analyzed by gel permeation chromatography, with UV detection at 220 nm, using Tosoh TSK gel G3000SWx1 column (Tosoh Bioscience, King of Prussia, Pa.). […]

[3] = target: T1, BHK cells stably transfected with human ABCG1 (Homo sapiens, UniProt P45844); assay: Cholesterol efflux assay in vitro, ABCG1; format: cell-based; settings: 18 h incubation
T1 construct: expressed in transfected cells; host or cells: BHK cells (stably transfected, mifepristone-inducible)
Method: (§1) Cholesterol efflux studies were performed, as described previously (25, 26). Briefly, BHK-mock and BHK stably transfected cells with human ABCA1 cDNA, ABCG1 cDNA and SR-BI cDNA were labeled for 24 h with 1 μCi/ml of ^3H-cholesterol in minimum essential medium medium plus 10% fetal calf serum. Transporters were induced with 10 nM mifepristone in Dulbecco's modified Eagle's medium (DMEM), containing 0.2 mg/ml of fatty acid-free bovine serum albumin for 18 h. Following induction of the transporters, the cells were washed and test articles were added at 0.1, 2.5, 5, 10, 20 and 40 μM in DMEM-BSA containing mifepristone. The cholesterol efflux by BSA, free 5A peptide, purified HDL, and ApoA-I were used as quality control standards. […] Radioactive counts in media and cell fractions were measured by liquid scintillation counting, and percent cholesterol effluxed was calculated by dividing media count by the sum of media and cell counts. […]
(§2) Cholesterol efflux studies were performed, as described previously (25, 26). […] Radioactive counts in media and cell fractions were measured by liquid scintillation counting, and percent cholesterol effluxed was calculated by dividing media count by the sum of media and cell counts.

[4] = target: T2, BHK cells stably transfected with human SR-BI (Homo sapiens, UniProt Q8WTV0); assay: Cholesterol efflux assay in vitro, SR-BI; format: cell-based; settings: 18 h incubation
T2 construct: expressed in transfected cells; host or cells: BHK cells (stably transfected, mifepristone-inducible)
T2 sequence (Q8WTV0 1-552): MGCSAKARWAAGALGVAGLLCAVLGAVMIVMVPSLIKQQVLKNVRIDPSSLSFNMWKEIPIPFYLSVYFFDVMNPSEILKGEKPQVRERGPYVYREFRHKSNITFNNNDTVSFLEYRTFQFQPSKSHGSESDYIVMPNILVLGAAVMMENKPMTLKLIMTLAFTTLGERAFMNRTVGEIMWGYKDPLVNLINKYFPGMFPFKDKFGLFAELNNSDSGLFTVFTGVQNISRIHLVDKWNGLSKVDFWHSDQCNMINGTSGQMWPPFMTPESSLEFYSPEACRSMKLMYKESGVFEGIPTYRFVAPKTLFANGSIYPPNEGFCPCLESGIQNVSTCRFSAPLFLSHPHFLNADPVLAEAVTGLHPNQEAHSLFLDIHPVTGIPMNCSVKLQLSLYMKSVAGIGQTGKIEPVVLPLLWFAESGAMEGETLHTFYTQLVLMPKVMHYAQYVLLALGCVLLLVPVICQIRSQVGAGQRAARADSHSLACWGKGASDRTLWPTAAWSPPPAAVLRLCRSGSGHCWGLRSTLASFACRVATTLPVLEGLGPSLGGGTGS
Method: as §1, §2

Row | Substance | helicity ([1]; associated with lipids) | helicity ([1]; lipid-free state) | Helicity (%) ([2]; Example 1, 0.1 mg/mL, 24° C.) | alpha-helix content ([2]; Example 2, n=3, mean±SD) [%] | cholesterol efflux via ABCG1 [3] | cholesterol efflux via SR-BI [4]
1 | apoA-I: the main protein in High Density Lipoprotein (HDL) | over 80% | about 20% | – | – | – | –
2 | DWLKAFYDKVAEKLKEAFPDWAKAAYDKAAEKAKEAA [5A, ApoA-I mimetic, 37-amino acid-long bi-helical peptide] | – | – | 19% and 18.9% | 18.8±0.3 | relatively low cholesterol efflux | relatively low cholesterol efflux
